# From paper PMC3438196
# B1: Apobec3G-GFP MAPPIT bait (pCEL-Apobec3G-GFP) [human] / Apobec3G MAPPIT prey (pMG2-Apobec3G) [human] (parent)
# chain 1: MKPHFRNTVERMYRDTFSYNFYNRPILSRRNTVWLCYEVKTKGPSRPPLDAKIFRGQVYSELKYHPEMRFFHWFSKWRKLHRDQEYEVTWYISWSPCTKCTRDMATFLAEDPKVTLTIFVARLYYFWDPDYQEALRSLCQKRDGPRATMKIMNYDEFQHCWSKFVYSQRELFEPWNNLPKYYILLHIMLGEILRHSMDPPTFTFNFNNEPWVRGRHETYLCYEVERMHNDTWVLLNQRRGFLCNQAPHKHGFLEGRHAELCFLDVIPFWKLDLDQDYRVTCFTSWSPCFSCAQEMAKFISKNKHVSLCIFTARIYDDQGRCQEGLRTLAEAGAKISIMTYSEFKHCWDTFVDHQGCPFQPWDGLDEHSQDLSGRLRAILQNQEN
# chain 2: B1 chain 1
# Variants of: B1
# Assay: MAPPIT
# Settings: with Apobec3G MAPPIT prey (pMG2-Apobec3G) [human]
row,Variant,percent of parent
1,chain 1 K270E,54 % of WT
2,chain 1 W94R,14 % of WT
3,chain 1 R24G,5 % of WT
4,chain 1 R78W,18 % of WT
5,chain 1 R30L,10 % of WT
6,chain 1 E191V,40 % of WT
7,chain 1 K63R,5 % of WT
8,chain 1 W175R,28 % of WT
9,chain 1 D128G,47 % of WT
10,chain 1 W269G,68 % of WT
11,chain 1 Y222N,7 % of WT
